Measured values reported in US20240228986A1, “ENGINEERED CELLS, ENZYMES, AND METHODS FOR PRODUCING CANNABINOIDS” (priority 2021, published 2024).

Key:
Type in all cases: cell-based, Yarrowia
olivetolic acid [1] = assay: MPT4.1 with and without GPS1.1 fusion vs MPT4 fusion, in vivo assay (Example 5); details: 3 mM olivetolic acid, 48 h quench
Procedure: As described below, plasmids pCL-SE-0337.MPT4.1 and pCL-SE-0753 were transformed into strain sCL-SE-0128. Multiple colonies per transformation were precultured for 24 h in YNB containing glucose (2%), casamino acids (0.5%), and MES (100 mM pH 6.5). Pre-culture was used to inoculate assay medium comprised of YNB containing glucose (6%), casamino acids (0.5%), MES (100 mM pH 6.5), and olivetolic acid (3 mM). Cultures were quenched with equal volume of ethanol after 48 h total growth and assayed for CBGA and FCBGA. Averages and standard deviations were calculated from replicates.
Overnight YPD (10 g/L yeast extract, 20 g/L peptone, 2% dextrose) cultures were inoculated from glycerol stocks of the appropriate strain and grown at 30° C. with 250 rpm shaking. Once cultures had reached an OD600 of 4-6, cultures were centrifuged at 500×g for 5 min, supernatants were discarded, and cell pellets were resuspended in equal volume of water. Resuspended cells were centrifuged at 500×g for 5 min, supernatants were discarded, and cells were resuspended in a volume (75 μL×OD×Vculture) of transformation cocktail (45% PEG-400, 0.1 M LiAc, 0.1 M DTT, and 25 ug/100 μL SS Salmon Sperm DNA). For each transformation, >1 μg of plasmid DNA was added to 55 μL cells/transformation cocktail and vortexed for 2 s. Transformations were incubated at 39° C. for 1 h with 250 rpm shaking. Transformations were resuspended in 750 μL YPD with 1 M sorbitol and recovered at 30° C. overnight with 250 rpm shaking. The next day, transformations were centrifuged at 500×g for 5 min, supernatants were discarded, and cell pellets were resuspended in 750 YPD. Resuspended transformations were plated on YPD with appropriate selection or YNBD (6.71 g/L yeast nitrogen base+nitrogen, 0.5% casamino acids, 2% dextrose) agar plates and grown at 30° C. for 2 days. Individual colonies were patched onto YPD plates with appropriate selection or YNBD plates and grown at 30° C. overnight. Patches were used to inoculate 0.5 mL YPD with appropriate selection or YNBD precultures in 96 w blocks and grown at 30° C. for 24-48 h with 1000 rpm shaking. For assays, 0.5 mL YPD with appropriate selection or YNBD cultures containing substrate were inoculated with 2 μL from precultures and grown at 30° C. for 2-4 days with 1000 rpm shaking with 2% glucose added every 24 h. Assay cultures were quenched by addition of 0.5 mL ethanol with 0.2% formic acid and 0.5 mg/mL pentyl-benzoic acid. Precipitates were pelleted by centrifuging at 4600×g for 10 min and then 200 μL was transferred to fresh plates, sealed, and analyzed via HPLC.
All samples were quenched with equal volume of EtOH containing 0.2 mg/mL internal standard (3,5-Diisopropyl-2-hydroxybenzoic acid CAS #2215-21-6) centrifuged, and clarified solutions were analyzed by HPLC-MS
• Column: 2.1×50 mm COSMOCORE PBr (Nacalai USA, Inc.) • Mobile Phase: A; 0.1% formic acid in water, B; 0.1% formic acid in acetonitrile • Flow: 0.45 mL/min • Temp: % 50 Celsius • Gradient: 20%B at 0 min, 70%B at 2.3 min, 89% B at 4.2 min, 20% B at 4.3 min, 20%B at 6 min

olivetolic acid [2] = assay: MPT fusions with GPS1.1 vs unfused MPTs, OA feed (Example 8, Table 9); details: 2 mM olivetolic acid, 48 h quench
Method in brief: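 Yeast strain sCL-SE-0128 carrying MPT or GPS1.1–MPT fusion plasmids, precultured 48 h in YNB/2% glucose/0.5% casamino acids/100 mM MES pH 6.5. Assay medium was the same plus 2 mM olivetolic acid, 30 °C. Cultures were ethanol-quenched at 48 h total growth, and CBGA and FCBGA were measured by HPLC-MS with internal standard; values are replicate means ± SD.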

divarinic acid = assay: MPT fusions with GPS1.1 vs unfused MPTs, DVA feed (Example 9, Table 11); details: 2 mM divarinic acid, 2% glucose, quenched after 48 h; strain sCL-SE-0128
Method in brief: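 Strain sCL-SE-0128 transformed with MPT or fused-MPT plasmids, several colonies each, precultured 48 h in YNB/glucose/casamino acids/MES pH 6.5. Assay medium carried 2 mM divarinic acid; cultures quenched with ethanol at 48 h total growth and CBGVA and FCBGVA quantified by HPLC-MS against internal standard, averaged over replicates.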

hexanoic acid = assay: GPS-PKC-MPT fusions, hexanoic acid feed in vivo assay (Example 13); details: hexanoic acid 2.5 mM plus 5 mM after 24 h, 48 h quench; strain SB-00311 + pCL-SE-0274; average of 44 or 34 transformants
Procedure: Strain SB-00311 (HCS2, PKS1.1 and PKC1.1) was co-transformed with 1) a construct (pCL-SE-0274) for expression of HMGR and GPS1.1 and 2) a construct (pCL-SE-0406) for expression of a fusion protein that contains, from N- to C-terminus, GPS1.1 and MPT4 linked using the F11 linker sequence or a construct (pCL-SE-0474) for expression of a fusion protein that contains, from N- to C-terminus, GPS1.1, PKC1.1 and MPT4, each linked using the F11 linker sequence.
Transformants were assessed for CBGA production from hexanoic acid. Assay cultures consisted of YNBD+CAA media with 2.5 mM hexanoic acid. After 24 h, an additional 5 mM hexanoic acid was added to each assay culture. Cultures were quenched after 48 h total growth.
Overnight YPD (10 g/L yeast extract, 20 g/L peptone, 2% dextrose) cultures were inoculated from glycerol stocks of the appropriate strain and grown at 30° C. with 250 rpm shaking. Once cultures had reached an OD600 of 4-6, cultures were centrifuged at 500×g for 5 min, supernatants were discarded, and cell pellets were resuspended in equal volume of water. Resuspended cells were centrifuged at 500×g for 5 min, supernatants were discarded, and cells were resuspended in a volume (75 μL×OD×Vculture) of transformation cocktail (45% PEG-400, 0.1 M LiAc, 0.1 M DTT, and 25 ug/100 μL SS Salmon Sperm DNA). For each transformation, >1 μg of plasmid DNA was added to 55 μL cells/transformation cocktail and vortexed for 2 s. Transformations were incubated at 39° C. for 1 h with 250 rpm shaking. Transformations were resuspended in 750 μL YPD with 1 M sorbitol and recovered at 30° C. overnight with 250 rpm shaking. […] Precipitates were pelleted by centrifuging at 4600×g for 10 min and then 200 μL was transferred to fresh plates, sealed, and analyzed via HPLC.
All samples were quenched with equal volume of EtOH containing 0.2 mg/mL internal standard (3,5-Diisopropyl-2-hydroxybenzoic acid CAS #2215-21-6) centrifuged, and clarified solutions were analyzed by HPLC-MS […]

B1: GPS1.1-F11-MPT4: fusion of GPS1.1 and MPT4 via F11 linker, SEQ ID NO: 16 (protein)
chain: MSKAKFESVFPRISEELVQLLRDEGLPQDAVQWFSDSLQYNCVGGKLNRGLSVVDTYQLLTGKKELDDEEYYRLALLGWLIELLQAFWLVSDDIMDESKTRRGQPCWYLKPKVGMIAIWDAFMLESGIYILLKKHFRQEKYYIDLVELFHDISFKTELGQLVDLLTAPEDEVDLNRFSLDKHSFIVRYKTAYYSFYLPVVLAMYVAGITNPKDLQQAMDVLIPLGEYFQVQDDYLDNFGDPEFIGKIGTDIQDNKCSWLVNKALQKATPEQRQILEDNYGVKDKSKELVIKKLYDDMKIEQDYLDYEEEVVGDIKKKIEQVDESRGFKKEVLNAFLAKIYKRQKGGAEAAAKEAAAKAGGSGGGSGGGGSGGSGGGGSGGGGSMSDNSIATKILNFGHTCWKLQRPYVVKGMISIACGLFGRELFNNRHLFSWGLMWKAFFALVPILSFNFFAAIMNQIYDVDIDRINKPDLPLVSGEMSIETAWILSIIVALTGLIVTIKLKSAPLFVFIYIFGIFAGFAYSVPPIRWKQYPFTNFLITISSHVGLAFTSYSATTSALGLPFVWRPAFSFIIAFMTVMGMTIAFAKDISDIEGDAKYGVSTVATKLGARNMTFVVSGVLLLNYLVSISIGIIWPQVFKSNIMILSHAILAFCLIFQTRELALANYASAPSRQFFEFIWLLYYAEYFVYVFI
modifications: GPS1.1-F11-MPT4, geranyl diphosphate synthase, membrane-bound prenyltransferase fusion protein
CBGA (olivetolic acid [1]; 6% glucose, strain sCL-SE-0128): 326 ± 16 µM
FCBGA (olivetolic acid [1]; 6% glucose, strain sCL-SE-0128): 62 ± 2 µM
CBGA/FCBGA (olivetolic acid [1]; product ratio): 5.2
CBGA (olivetolic acid [2]; 2% glucose, strain sCL-SE-0128): 200 ± 3 µM
FCBGA (olivetolic acid [2]; 2% glucose, strain sCL-SE-0128): 24 ± 1 µM
CBGA/FCBGA (olivetolic acid [2]; product ratio): 8.2
CBGVA (divarinic acid): 45 ± 2 µM
FCBGVA (divarinic acid): 0 ± 0 µM
CBGA (hexanoic acid): 55.9 ± 26.4 µM
